Assay: yeast display, Sf9 membrane polyspecificity reagent, FACS + sequencing; frameworks hold sequencing errors
Outline: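 In a synthetic yeast display library (Saccharomyces cerevisiae BJ5465), nanobody expression was induced with galactose for 36–48 hours. FACS gates were set low and high (top ~1%) using anti-HA fluorescence for expression and streptavidin fluorescence for binding of the Sf9 membrane reagent. Each polyreactivity label is drawn from the gate of origin.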

Row | Sequence | polyreactivity (PSR sort gate)
1 | QVQLVESGGGLVQAGGSLRLSCAASGSTFYYNAMGWYRQAPGKERELVAAISKRGGTTSYADSVKGRFTISRDNAKNTVFLQMNSLKPEDTAVYYCAAQTYLRQFYRYDWGQGTQVTVSS | high polyreactivity
2 | QVQLEESGGGFVQAGGSLRLSCAASGSIFYYYVMGLYRQAAGKERELVAALTNSDRTYYADSVKGRFTISRDNAKNTVYLQMTSLKPEDTAVYYCAADYYWSPYYVYQFDYWGQGTQVTVSS | low polyreactivity
3 | QVQLVESGGGLVQAGGSLRLSCAASGRTFSRYAMGWYRQAPGKERELVAAITSGGSTYYADSVKGRFTISRDNAKNTVYLQMNSLKPEDTAVYYCAAVWRYGYSDGGYWGLGTQVTVSS | high polyreactivity
4 | QVQLVESGGGLVQAGGSLRLSCAASGSTIKYYAMGWYRPAPGKERELVAAISKGATRTYYADSVKGRFTISRDHAKNTVYLQMNSLKPEDTAVYFCAADRLKFPCEYDYWGHGTQVTVSS | high polyreactivity
5 | QVQLVESGGGLVQAGGSLRLSCAASGSIFLVNAKGCYRQAPGKARELVAAITYGGDSTYYADSVKGRFTISRDNAKNTVYLQMNSLKPEDTAVYYCAADAWVGWHDEYDYWGQGTQVTVSS | low polyreactivity
6 | QVQLVESGGGLVQAGGSLRLSCAASGITFYYYAMGRYRQAPGKERELVAAIDTDGSTYYADSVKGRFTISRDNAKNTVYLQMNSLKPVDTAVYYCNAVGSRRSIPRVYYWGQGTQVNVSS | high polyreactivity
7 | QVQLVESGGGLVQAGGSLRLSCAASGRTFKPYAMGWYRQAPGKERELVAAISSGVSTHYADSVKGRFTISRDNAKNTVYLQMNSLKPEDTAVYYCAADYWVNYWFDYWGQGTQVTVSS | low polyreactivity
8 | QVQLVESGGVLVQAGGSLRLSCAASGYIFNKYVMGWYRPAPGKERELVAAISASGGSTYYADSVKGRFTLSRDNAKNTVYLQMNSLKPEDTAVYYCAATLYRRMDYWGQGTQVTVSS | high polyreactivity
9 | QVQLVESCGGLVQAGASLRLSCAASGSTFYDNVMGWYRQAPWKERELVAAITWRGGSTYADSVKGRFTISRDNAKNTVYLQMNSLKPEDTAVYYCNADDDYQQYLGDYWGQGTQVTVSS | low polyreactivity
10 | QVQLVESGGGLVQAGGSLRLSCAAPGSTFVRYAMGWYRQAPGKERELVAAISKSGGSTYYADSVKGRFTISRDNAKNTVYLQMYSLKPEDTAVYYCAATTTRYSYEYWGQGTQVTVSS | low polyreactivity
11 | QVQLVESGGGLVQAGGILRLSCAASGFIFQFNAMGWYRQAPGKEMEMDASISVSGGSTYYADSVKGRFTISRDNAKNTVYLQMNSLKPEDTAVYYCAATQRRYTYGHDYWGQGTQVTVSS | low polyreactivity
12 | QDQLVESGGGLVQAGGSLRLSCAASGSTFSVYAMGWYRRAPGKERELVATIRGRGGSTSYADSVKGRFTISRDNAKNTVYLQMNSLKPEDTAVYYCAARVVRDWASKRIILALSNYVYWGQGTHVTVSS | high polyreactivity
13 | QVQLVESGGGLVQAGGSLRLSCADSGSTFYYYTKGWYRQAPGKERELVAAISFSGGSTYYADSVKGRFTISLYNAKNTVYLQMNSLKPEDTAVYDCAAAQRVYKSWGYYWGQGSQVTVSS | low polyreactivity
14 | QVQLVESGGGLDQAGGSLRLSCAASGSIFFGNAMGWSRQPPGKERELVAAITTSGGSTYYADSVKGRFTISRDNAKNTLYLQMNSLKPEDTAVYYCYARIASWLGSRYEYWGQGTQVTVSS | low polyreactivity
15 | QVQLQESGGGLLQAGGSLRLSCAASGSISQYIFMGWYRQAPGKEREFVAGIGYGGTTNYADSVTGRFTISRDNAKNTVYLQMNSLKPEDTAMYYCSAREATEFYLYYWGQGTQVTVSS | low polyreactivity
16 | QVQLVESGGGLVQAGGSLRLSCAASGFTFTPNAMGWYRQAPGKERELVAITWSDGNTYYADSVKGRFTISRDNAKNTVYLQMNSLKPEDTAVYYCNADSTQGAWWPWLNDYWGQGTQVTVSS | high polyreactivity
17 | QVQLVESGGGLVQAGGSLRLSCASSGRTFFRNPMGWYRQAPGKERELVAAISKRGGSTYYADSVKGRFTISRDNAKNTVYLQMISLSPEDTAVYYCNADPRTVGLDYWGQGTQVTVSS | high polyreactivity
18 | QVQLVESGGGLVQEGGSLRLSCAASVFIIDYYAMGWYRQAPGKERELVASISYNSVSTTYADSVKGRFTISRDNAKNTVYLQMNSLKPEDTAVYYCAATSWYWAYTYYYWGQGTQVTVSS | low polyreactivity
19 | QVQLVESGGGLVQAGGSLRLSCAASGSTFITYGMGWYRQAPGKERELVARITLSGGSTYYADSVKGRFTISRDNAKNTVYLQINSLKPEDTAVYYCATDFGWQYYVLDGYYWGQGTQVTVSS | low polyreactivity
20 | QVQLVESGGGLVQAGGSLRLSCAASGRICINDMGWYRQAPGKERELVAAIRSDGSTNYADSVKGRFTISRDNAKNTVYLQMNSLKPEDTAVYYCNVDGYYLFVRGYEYWGQGTQVTVSS | low polyreactivity
21 | QVQLVESGGGLVQAGGSLRLSCAASGFIFRFYAMGWYRQAPGKERELVATISKRGGTTYYADSVKGRFTISRDNAKYTVYLQMNSLKPEDTAVYFCAVRLYLEMDYWGQGTQVTVSS | high polyreactivity
22 | QVQLVESGGGLVQAGGSLRLSCAASGRTFAGYAMGWYRQAPGKERELVAGITTSGGITYYADSVKGRFTISRDNAKNTVYLQMNSLKPEDTAVYYCNTGYYGRLRDDYWGQGTQVTVSS | high polyreactivity

Row | Sequence | polyreactivity (PSR sort gate)
23 | QVQLVESGGGLVQAGGSLRLSCAASGRIFIYNAMGWYRQAPGKETELVAAISSGGDTYYADSVKGRFTISRDNAKNTVYLQMNSLKPEDTAVYYCAARVYRYRGYDSWGQGTQVTVSS | high polyreactivity
24 | QVQLVESGGGLVQAGGSLRLSCAASGFIFSYYAMGWYRQAPGKERELVATITRSGGRTYYADSVKGRFTISRDNAKNTVYLQMNSLKPEDTAVYYCAADYYYKDDSWGQGTQVTVSS | high polyreactivity
25 | QVQLVESGGGLVQAGGSLRLSCAASGSIFTRYAMGWYRQAPGKEREFVAAISRRGGRTYYADSVKGRFTISRDNAKNTVYLQMNSLKPEDTAVYYCAASEPPGYYIALFDYWGQGTQVTVSS | high polyreactivity
26 | QVQLVESGGGLVQAGGSLRLSCAASGFTFRFYAMGRYRQAPGKERELVAAISGSGGSTYYADSVKGRFTISRDNAKNTVFLQMNSLKPEDTAVYYCNAGRWLYWYDRSDYWGQGTQVTVSS | high polyreactivity
27 | QVQLVESGGGLVQAGGSLRLSCAASGRIFTIYAMGWYRQEPGKERELVAAITRGGNTNYADSVKGRFTISRDNAKNTVYLLMNSLKPEDTAVYYCAARANVYTKKRDYWGQGTQVTVSS | high polyreactivity
28 | QVQLVESGGGLVQAGGSLRLSCAASGRIFLPYAMGWYRQAPGKERELVAGISSGGSTKYADSVKGRFTISRDNAKNTVYLQMNSLKPEDTAVYYCNRRFPIYGSRFGYYYWGQGTQVTVSS | high polyreactivity
29 | QVQLVESGGGLVQAGGSLRLSCAASGSIQTRNAMGWYRQAPGKERELVAAITGSGGRTYYADSVKGRFTISRDNAKNTVYLQMNSLKPEDTAVYYCATRYGREDYWGQVTQVTVSS | high polyreactivity
30 | QVQLVESGGGLVQAGGSLRIRCAASGRIFRTNAMGWYRQAPGKERELVAAISDSGADTSYADSVKGRFSISRDNAKNTDYLQMNSLKPEDTAVDYCNRGRVYYRYLKDYDYWGQGTQVTVSS | low polyreactivity
31 | QVQLVESGGGLVQAGGSLRLSCAASARIYDLNAMGWYRQAPGKERELVAAITWSGDSTYYADSVKGRFTISRDTAKNTVYLQMNSLKPEDTAVYYCAAASRTSYSWVDYEFDYWGQGTQVTVSS | low polyreactivity
32 | QVQLVESGGGLVQAGGSLRLSCAASGRTFYSYAMGWYRQAPGKERELVAAISYTGASTFYADSVKGRFTISRDNAKNTVYLQMNSLKPEDTAVYYCAGRKVRFGVDYWGQGTQVTVSS | high polyreactivity
33 | QVQLVESGGGLVQAGGSLRLSCAASGFTFPGYARGWYRQAPGKERELVAAISRGGAGTYYADSVKGRFTISRDNAKNTVYLQMNSLKPEDTAVYYCAAVYYVDYPDGNYEYWGQGTQVTVSS | high polyreactivity
34 | QVQLVESGGGLVQAGGSLRLSCAASGRTFGAYTMGWYRQAPGKERELFAAINWSGGDTYYADSVKGRFTISRDNAKNTVYLQMNSLKPEDTAVYYCNADFGFGYVSLLYEYWGQGTQVTVSS | low polyreactivity
35 | QVQLVESGGGLVQAGGSLRLSCAASGFTFYYYAMGWYRQAPGKERELVAAISKSGGSTYYADSVKGRFTISRDNAKNTVYLQMNSLKPEDTAVYYCARDKGSSGKGHGYWGQGTQVTVSS | high polyreactivity
36 | QVQLVESGGGLVQAGGSLRLSCAASGRIFYYYAMGWYRQAPVKERELVAAISQRGGRTYYADSVKVRFTISRDNAKNTVYLQMNSLKPEDTAVYYCNAYPVYGRYTHYGYGHWGQGTQVTVSS | high polyreactivity
37 | QVQLVESGGGLVQAGGSLLLSCAASGRIFRWNAMGWYRQAPGKERELVAAIRSRGGSTYYADSVKGRFTISRDNAKNTVYLQMNSLKPEDSAVYYCNARIASYRSIYDYWGQGTQVTVSS | high polyreactivity
38 | QVQLVESGGGLVQAGGSLRLSCAASGSIFYYYTRGWSRQAPGKEMELVAAITSGGSTYYADSVKGRFTISRDNAKNTVYLQMNSLKPEDTAVYYCAAPIYYRLWKPGYEYWGQGTQVTVSS | high polyreactivity
39 | QLQLVESGGGLVQAGGSLRLSCAASGRTLQWSTMGGYRQAPGKERELVAVISKSGGRTYYADSVKGRFTISRDNAKNTVYLQMNSLKPEDTAVYYCNTPHRSSSVRSYGYWGQGTQVTVSS | high polyreactivity
40 | QVQLVESGGGLVQAGGSLRLSCAASGRTFIYYAMGWYRQAPGKERELVAGITYSVGSTYYADSVKGRFTISRDNEKNTVYLQMNSLKPEDTAVYFCAADATFESDWGQGTQVTVSS | low polyreactivity
41 | QVQLVESGGGLVQAGGSLRLSCAASGRTFNKYAMGWYTQAPGKERELVAAISTRGGSTYYADSVKGRFTISRDNAKNTVDLQMNSLKPEDTAVYYCAARLTTVGQGFDYWGQGTQVTVSS | high polyreactivity
42 | QVQLVESGGVLVQAGGILRLSCAASGSIFYMYAMGWYRQAPGKERELVAAISRSGGRTYYADSVKGRFTISRDNAKNTVYLQMNSLKPEDTAVFYCAARDHYSTGGMKYWGQGTQVTVSS | high polyreactivity
43 | QVQLVETGGGLDQAGGSLRLRCAASGSIFLIYGMGWYRQAPGKERELDAAITARCGSTYYADSVKGRFTISRDNAKNTVYLLMNSLKPEDTAVYYCAADEYEALGKFQPYQFDYWGQGTQVTVSS | low polyreactivity
